The target of assay [1] is T1, human CD8α full-length protein (human, UniProt P01732 22-235).
T1 construct: whole, on cells; The same entry is used for MC38-CD8α transfectants and for human CD8+ T cells from peripheral blood; the assay field says which cells; also called cell surface CD8α; MC38-CD8α cells
The experiment in a line: flow cytometry on MC38-CD8α cells, secondary antibody-PE. As for the experimental part:
Mouse colon cancer MC38 cell lines stable transfected with human CD8α full-length protein gene were constructed to obtain MC38 cells (MC38-CD8α cells) stably expressing human CD8α proteins on the cell membrane. Prior to use, the cells were cultured to >90% convergence. The anti-CD8α single domain antibody was used to perform flow cytometry on these cells for quantitative analysis of indirect immunofluorescence staining so as to determine the quantity of receptors on surface of each cell.
The cells were collected and suspended to a concentration of 2.5×10⁶ cells/mL. 200 μL of cell aliquot samples were mixed with 20 μL of primary antibody, and the obtained mixture was incubated for 30 min on ice. The cells were centrifuged, washed and re-suspended, then 5 μL of secondary antibody-PE conjugate was added, and then the above mixture was incubated for 30 minutes on ice. The cells were washed twice, re-suspended and underwent flow cytometry on BD FACSCelesta™. For each tube, at least 5×10⁴ events were collected. All the analyses were single colors, and PE was detected in […].
(In general: Flow cytometry measures light scatter and fluorescence of single cells or particles in a stream.)

The target in the next assay is T2, CD8α-Fc fusion protein (human).
T2 construct: also called CD8 α-Fc protein; CD8α-Fc tag antigen
Nature of the assay: phage ELISA on coated CD8α-Fc. As for the experimental part: After 3-4 rounds of panning, 96 clones were randomly picked from the plate subjected to the last round of panning for identification. 96 single colonies were randomly picked and respectively cultured to produce and purify phages. The plate was coated with CD8α-Fc fusion protein at 4° C. overnight, then blocked with 3% BSA, and reacted for 1 hour at 37° C. Subsequently, the phage supernatant obtained after infection was added into each well (the control group was blank phage), and incubated for 1 hour at 37° C. After PBST washing, horseradish peroxidase labeled anti-M13 secondary antibody (purchased from Beijing Yiqiao Shenzhou Biotechnology Co., Ltd.) was added, and reacted for 1 hour at room temperature. After washing, a tetramethylbenzidine (TMB) chromogenic solution was added and an absorption value at 450 nm was read. Meanwhile, the plate was coated with an Fc protein at 4° C. overnight, blocked with 3% BSA, and reacted for 1 hour at 37° C. After washing, the phage supernatant obtained after infection (the control group was blank phage) was added to react for 1 hour at 37° C. After washing, the horseradish peroxide labeled anti-M13 secondary antibody (purchased from Beijing Yiqiao Shenzhou Biotechnology Co., Ltd.) was added to react for 1 hour at room temperature. After that, a TMB chromogenic solution was added and an absorption value at 450 nm was read. Where, when a ratio obtained by an OD value being divided by an OD value of blank control was >=4, it was judged that a candidate antibody could bind the CD8α-Fc protein; meanwhile, a ratio obtained by the CD8α-Fc binding OD value of the above antibody capable of binding the CD8 α-Fc antigen protein being divided by the Fc protein binding OD value was >=5, it was considered that the candidate antibody could specifically bind the CD8α part rather than the Fc part. […] The bacteria in candidate clone well were transferred to an LB liquid culture medium containing 100 μg/mL ampicillin so as to perform plasmid extraction and sequencing.
On the technique in general: In an ELISA, binding on a coated surface is turned into a signal by an enzyme label.

Residue numbers refer to the chain shown, from its start.

27 molecules from patent US20240209089A1 (SUZHOU SMARTNUCLIDE BIOPHARMACEUTICAL, published 2024) can be followed below.

T1 sequence (P01732 22-235): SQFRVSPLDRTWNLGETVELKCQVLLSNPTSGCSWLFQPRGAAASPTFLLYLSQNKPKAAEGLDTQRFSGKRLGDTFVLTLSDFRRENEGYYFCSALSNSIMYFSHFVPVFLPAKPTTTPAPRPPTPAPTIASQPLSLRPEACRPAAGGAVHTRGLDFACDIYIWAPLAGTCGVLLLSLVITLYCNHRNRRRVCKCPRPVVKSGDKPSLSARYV
T2 sequence (chain, as listed by the source): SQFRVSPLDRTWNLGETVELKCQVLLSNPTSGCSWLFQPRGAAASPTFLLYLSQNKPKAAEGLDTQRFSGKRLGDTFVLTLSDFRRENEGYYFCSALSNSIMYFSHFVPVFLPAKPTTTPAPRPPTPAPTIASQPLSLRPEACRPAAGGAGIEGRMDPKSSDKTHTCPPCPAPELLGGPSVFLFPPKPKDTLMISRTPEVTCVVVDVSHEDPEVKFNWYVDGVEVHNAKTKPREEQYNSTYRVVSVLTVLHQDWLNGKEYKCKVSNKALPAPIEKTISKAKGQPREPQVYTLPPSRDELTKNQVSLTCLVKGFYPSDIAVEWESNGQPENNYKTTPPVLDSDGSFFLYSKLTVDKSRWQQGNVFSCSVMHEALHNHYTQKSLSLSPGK

B1: anti-CD8α single domain antibody S6 (VHH, not shown: small tags and cut ends)
VHH: QVQLVESGGGLVQPGGSLRLSCAVSGTIFSINTMGWYRQVPGKQRELVATITSSGSTKYADSVKGRFTVSRDNAKRTVFLQMDSLKPEDTAVYYCHANDVGWGTVNAWGQGTLVTVSS
notes: Only the E. coli expression is described for this antibody
With B1, the “Positive rate (%)” value in assay [1] stood at 97.5%.

B2: phage clone No. 54 (S6) (VHH)
VHH: B1 VHH
In the assay with CD8α-Fc fusion protein, B2 registered an OD450 of 1.3.

B3: phage clone No. 53 (S5) (VHH)
VHH: QVQLVESGGGLVQAGGSLRVSCAASGGTFSSTAMGWFRQAPGKEREFVAAISWSGGYTYYADSVRGRFTISRDNALNTVSLQMNSLKPEDTAVYYCAADISGLDTVAAGIFTEPNIDYWGKGTLVTVSS
Regarding B3, the OD450 with CD8α-Fc fusion protein was 1.2.

B4: anti-CD8α single domain antibody S7 (VHH, not shown: small tags and cut ends)
VHH: QLQLVESGGGLVQPGGSLRLSCAASGSIFSINGMGWYRQAPGKQREAVAVITSGGKIDYLDSVKGRFTISRDSAKNTVALQMNSLKPEDTAVYYCNAYGDVRRGEVRWGQGTQVTVSS
notes: as for B1
Turning to B4, the “Positive rate (%)” value in assay [1] came to 99.3%.

B5: phage clone No. 55 (S7) (VHH)
VHH: B4 VHH
The molecule B5 returned an OD450 in the assay with CD8α-Fc fusion protein of 1.61.

B6: phage clone No. 71 (S23) (VHH)
VHH: B4 VHH with L2V, A47L, V50A, I57T, R102Q
B6 came in with an OD450 with CD8α-Fc fusion protein of 1.62.

B7: anti-CD8α single domain antibody S23 (VHH, not shown: small tags and cut ends)
VHH: B4 VHH with L2V, A47L, V50A, I57T, R102Q
notes: as for B1
B7: the “Positive rate (%)” value in assay [1] is 99.3%.

B8: phage clone No. 46 (C46) (VHH)
VHH: QVQLVESGGGLVQAGGSLRLSCAASGVTFDDLAIGWFRQVPGKGREGVSTIGTSDGTAYYADSVKGRFTISSDNAKNTVYLQMNSLKPEDTAVYYCAVDLDYGLGSLLPMGYDYWGQGTQVTVSS
For the molecule B8, the OD450 with CD8α-Fc fusion protein stood at 2.35.

B9: anti-CD8α single domain antibody S22 (VHH, not shown: small tags and cut ends)
VHH: QLQLVESGGGLVQPGGSLRLSCAASGSIFSINTMGWYRQAPGKQRELVATMHSTGSTNYADSVKGRFTISRDNAKKTVYLQMNSLKPDDTAVYYCHVDDMGWGTVDSWGQGTQVTVSS
notes: as for B1
Regarding B9, the “Positive rate (%)” value in assay [1] worked out at 97%.

B10: anti-CD8α single domain antibody S32 (VHH, not shown: small tags and cut ends)
VHH: B9 VHH
notes: as for B1
With B10, the “Positive rate (%)” value in assay [1] came out at 99.1%.

B11: phage clone No. 70 (S22) (VHH)
VHH: B9 VHH
For the molecule B11, the OD450 with CD8α-Fc fusion protein is 1.73.

B12: phage clone No. 45 (C45) (VHH)
VHH: B9 VHH with L2V, S27P, A40V, M100T
B12 displayed an OD450 in the assay with CD8α-Fc fusion protein of 2.42.

B13: anti-CD8α single domain antibody C45 (VHH, not shown: small tags and cut ends)
VHH: B9 VHH with L2V, S27P, A40V, M100T
notes: as for B1
Consider B13, for which, in assay [1], the “Positive rate (%)” value was found to be 99.1%.

B14: anti-CD8α single domain antibody S18 (VHH, not shown: small tags and cut ends)
VHH: QLQLVESGGGLVQPGGSLRLSCAASGSIFSINTMGWYRQAPGKQRELVATMTSHGSTNYADSVKGRFTISRDNSKNTVYLQMNSLKLQDTAVYYCNANDMGWGTVDAWGQGTLVTVSS
notes: as for B1
Consider B14, for which the “Positive rate (%)” value in assay [1] turned out to be 99.2%.

B15: phage clone No. 61 (S13) (VHH)
VHH: B9 VHH with A23V, A24V, S30A, T54Y, D88A, V97A, M100T
Turning to B15, the OD450 with CD8α-Fc fusion protein was found to be 1.71.

B16: phage clone No. 66 (S18) (VHH)
VHH: B14 VHH
Take B16: in the assay with CD8α-Fc fusion protein, the OD450 amounted to 1.72.

B17: phage clone No. 30 (C30) (VHH)
VHH: B9 VHH with L2V, A23V, S30A, T50D, T77K, M100R
In turn, B17 displayed an OD450 in the assay with CD8α-Fc fusion protein of 2.03.

B18: phage clone No. 27 (C27) (VHH)
VHH: B9 VHH with A23V, A24V, S30A, T54G, N73A, K75P, D88A, V97A, M100S, T112I
In the assay with CD8α-Fc fusion protein, B18 yielded an OD450 of 2.74.

B19: phage clone No. 24 (C24) (VHH)
VHH: B9 VHH with L2V, S27P, M100T, T112I
In the assay with CD8α-Fc fusion protein, B19 returned an OD450 of 2.35.

B20: anti-CD8α single domain antibody C30 (VHH, not shown: small tags and cut ends)
VHH: B9 VHH with L2V, A23V, S30A, T50D, T77K, M100R
notes: as for B1
In the case of B20, the “Positive rate (%)” value in assay [1] came to 98.8%.

B21: phage clone No. 77 (S29) (VHH)
VHH: QLQLVESGGGLVQPGGSLRLSCTASGIIFSINTMGWYRQAPGKQRELVADISSFGSTNYADSVKGRFTISRDNAKNSVYLQMNSLKPEDTAVYYCNAHDKGWGTVDSWGQGTQVTVSS
On to B21, for which the OD450 with CD8α-Fc fusion protein was determined as 1.63.

B22: phage clone No. 20 (C20) (VHH)
VHH: QVQLVESGGGLVQPGGSLRLSCAASGSIFSINTMGWYRQAPGKQRELVATMHSTGSTNYADSVKGRFTISRDNAKKTVYLQMNSLEPDDTAVYYCHVDDTGWGTVDSWGQGTQVTVS
Molecule B22 registered an OD450 with CD8α-Fc fusion protein of 3.19.

B23: anti-CD8α single domain antibody C20 (VHH, not shown: small tags and cut ends)
VHH: B22 VHH
notes: as for B1
B23: the “Positive rate (%)” value in assay [1] came out at 98.9%.

B24: phage clone No. 29 (C29) (VHH)
VHH: QVQLVESGGGLVQAGGSLRLSCVASGFTSDDYVIGWFRQAPGKEREGVSCISSSDGTTNYADSVKGRFTISSDNAKNTVYLQMNSLKPEDTAVYYCAADPMRVCPYSGTYYGILGFGTSGQGTQVTVSS
In the case of B24, the OD450 with CD8α-Fc fusion protein came to 1.75.

B25: phage clone No. 42 (C42) (VHH)
VHH: QVQLVESGGGLVQAGGSLRLSCAASGLTFEDYAIGWFRQAPGKEREGISCIRIYDGNTYSAESVKGRFTISSDNAKNQVYLQINTLKPEDTAVYYCAAGSYYSCSVYPDYDMDYWGKGTLVTVSS
The molecule B25 displayed an OD450 in the assay with CD8α-Fc fusion protein of 3.18.

B26: phage clone No. 37 (C37) (VHH)
VHH: B25 VHH with V2L
For the molecule B26, the OD450 with CD8α-Fc fusion protein worked out at 3.2.

B27: phage clone No. 2 (C2) (VHH)
VHH: B25 VHH with A14P, L27F, F29L, E30D, D31Y
B27: the OD450 in the assay with CD8α-Fc fusion protein came out at 3.21.
